Assay: folding stability dG unfold (combined trypsin and chymotrypsin); higher = more stable
Method: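 Folding stability of de novo designed mini-proteins (<80 aa, no Cys; designed by TrROS, TrMRF, ProteinMPNN and the joint model) was measured by cDNA display proteolysis with trypsin and chymotrypsin. Each protease was used at 11 concentrations in a threefold dilution series plus a no-protease condition. K50 was inferred by Bayesian fitting of sequencing counts, and dG unfold was derived against a sequence-predicted unfolded-state K50 (Tsuboyama et al. method). Sequences shown include variable-length N-terminal GS-type padding (SAGGSAGG...) inside a display construct carrying a PA tag. Rows were kept only if the AF2 dimer inter-PAE was >15, to exclude likely homo-oligomers.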

Sequence	folding stability dG unfold
SAGGSAGGSAGGIYIPMDDLKKNGMSIEQFADKLGHPVEIEVERNEPGSPVFKIEPDAKSAGGSAGGSAGGS [r10_855_TrROS]	< -1 kcal/mol
SAGGSAGGSAGGKRRKITIPFKMPDGRWHPIRANMSEEQLEDIVEHHPFFKPAIKKALKKSAGGSAGGSAGG [r7_637_TrROS]	< -1 kcal/mol
SAGGSAGGSAGGLKIPKGYPWKLSHNNGKEREFKFDSLDDIKEELNVPIPPGRNIQIEPYSAGGSAGGSAGG [r7_223_TrROS]	< -1 kcal/mol
SAGGSAGGSAGGMEDVKLLSKSYIPETNELEVTVEIPGGELVNIPLKPGVTDEDVLKLISAGGSAGGSAGGS [r10_984_JUSTAS]	< -1 kcal/mol
SAGGSAGGSAGGMELEVHYTPNGYHTAEIRDPNGKPVEIYFDSPEDAPKEAQKLAKELQSAGGSAGGSAGGS [r10_1066_TrROS]	< -1 kcal/mol
SAGGSAGGSAGGMITVKDPATGKWREVTPEELEEVLAANPGPITVEREGGRRTVPAALLSAGGSAGGSAGGS [r10_839_JUSTAS]	< -1 kcal/mol
SAGGSAGGSAGGMKVTVETFEGPDFEIVTERSPEGKVKVFTIKPNEVKEEVIPLENPELSAGGSAGGSAGGS [r10_1169_JUSTAS]	< -1 kcal/mol
SAGGSAGGSAGGMPELEKEGYKVEKFTIFEPDPLKPVGEVTVLTEVPKPKLLEGGSTSGLSAGGSAGGSAGG [r7_959_JUSTAS]	< -1 kcal/mol
SAGGSAGGSAGGMRDIAREFAEKNGDKNKPVRIKMPGGKKHNFTPDDIPDMPFDNWTIEPSAGGSAGGSAGG [r7_863_TrROS]	< -1 kcal/mol
SAGGSAGGSAGGMTKTYVTPVSPDVSEEEIKEKLAPEVSSVEVERDEESGTVTITTTLDSAGGSAGGSAGGS [r10_1007_JUSTAS]	< -1 kcal/mol
SAGGSAGGSAGGMVTIETPDEKYEITPTPEDRVLTKVYKKGKEIIKTKDPNSDKTEILDESAGGSAGGSAGG [r7_683_JUSTAS]	< -1 kcal/mol
SAGGSAGGSAGGMVTNEVIEVDPANPEEVIAEIKAKGKAEAKKIEKLEGDKMKVYVKTSLSAGGSAGGSAGG [r7_589_JUSTAS]	< -1 kcal/mol
SAGGSAGGSAGGNIEIEVERNPENGYYTVEIKFNNPPIEIMVPRGMPKEQAKDWAKDLISAGGSAGGSAGGS [r10_192_TrROS]	< -1 kcal/mol
SAGGSAGGSAGGNTRYIPMPPDDIEELIEEAKDEGIDNVIIHNPENGRWIKITGDKIKPVSAGGSAGGSAGG [r7_564_TrROS]	< -1 kcal/mol
SAGGSAGGSAGGPDIKEAKPGLYPDKPVIYFKLPDREVVLFPGPKERFVKFGDKVLKIPSAGGSAGGSAGGS [r10_559_TrMRF]	< -1 kcal/mol
SAGGSAGGSAGGPDVEKYPFKFPGKKFKIQRNPDDPDSYMISFPPGKTETFPLDDIKPLSAGGSAGGSAGGS [r10_556_TrROS]	< -1 kcal/mol
SAGGSAGGSAGGPEGQWIDMDVEHNPKNNKLTIKFPDSGKPITIPANNIERVGDYIRINSAGGSAGGSAGGS [r10_942_TrROS]	< -1 kcal/mol
SAGGSAGGSAGGPKIQIPVDSPEDAVDEARDWMEQQFGIDPEDMPINVHVNEDDGWLYIRSAGGSAGGSAGG [r7_387_TrROS]	< -1 kcal/mol
SAGGSAGGSAGGPYLRIKWKHPENGKTREIEIPFEGKPLEEIADNIKKEHGMTVTDIEPVSAGGSAGGSAGG [r7_590_TrROS]	< -1 kcal/mol
SAGGSAGGSAGGSGSFDPENGTIEIRVPKTKKPVKIPFPEEEADEFAENLPPNLDRVHFSAGGSAGGSAGGS [r4_282_TrROS]	< -1 kcal/mol
SAGGSAGGSAGGSGVRLRFPADYPELVEKLAKAFGLKPKSFNPDTGEVDIGNEPGAKIVSAGGSAGGSAGGS [r4_3_TrMRF]	< -1 kcal/mol
SAGGSAGGSAGGSKLPPGAKVKIRFPNNNKEHEIKSPEQIKTFEIDGREMKIRKIEVEDSAGGSAGGSAGGS [r4_214_TrROS]	< -1 kcal/mol
SAGGSAGGSAGGSMKIIEVPGPPEEVIEKIKEENPNAKVLSVEEDPEGGVTFKIEIEEKSAGGSAGGSAGGS [r4_95_JUSTAS]	< -1 kcal/mol
SAGGSAGGSAGGSNIKELAKELWDKNPGPRPIRFKGNGYKIRFQMPPEGRLRPVEIEKNSAGGSAGGSAGGS [r4_438_TrROS]	< -1 kcal/mol
SAGGSAGGSAGGSPAFVAPSPDAYLSADPVTGEWEPVPADHVVLSVDPSNGRVTISDPLSAGGSAGGSAGGS [r4_127_TrMRF]	< -1 kcal/mol
SAGGSAGGSAGGSTKTIMLDSPEKVEELVEEAMEKGDPITIEYHDPGEGKPFEFKFPVKSAGGSAGGSAGGS [r4_188_TrROS]	< -1 kcal/mol
SAGGSAGGSAGGSTLEEIREMAKQGKKFKIRNPGNNQEHEIRPDDLDDFRGSPISIEPVSAGGSAGGSAGGS [r4_157_TrROS]	< -1 kcal/mol

Sequence	folding stability dG unfold
SAGGSAGGSAGGSVIMVNSPEWAKEFAGAMMQEKSRKHGEPMTPDDVPVEIEVYDPEDWSAGGSAGGSAGGS [r4_498_TrROS]	< -1 kcal/mol
SAGGSAGGSAGGSVTVSLSELKKILKEKGNPGTVEEILEDPNVSVSKDPNSSNEIVTIPGSAGGSAGGSAGG [r7_180_JUSTAS]	< -1 kcal/mol
SAGGSAGGSAGGTAEEIRDIFEEHGMEVEVEVTPDNVTIQYEMPNGKKREFRIPADDLKSAGGSAGGSAGGS [r10_1029_TrROS]	< -1 kcal/mol
SAGGSAGGSAGGTDKVKEKLAPGRDITVLKIDPTDSVVNVTVKSPDSDVDTVVEVDPELISAGGSAGGSAGG [r7_303_JUSTAS]	< -1 kcal/mol
SAGGSAGGSAGGTIEELAEKLPNVDLKPVEPGPGMRRIKAQPPNGKKFTIMVDDGKIHIQSAGGSAGGSAGG [r7_26_TrROS]	< -1 kcal/mol
SAGGSAGGSAGGVVSPSSEPVEMTVEEVILETERVPESGESLRPLPVRRVLRTVTNFGLSAGGSAGGSAGGS [r10_122_JUSTAS]	< -1 kcal/mol
SAGGSAGGSAGIKIPSNYKYKIEKSKDDYYEIYTEDKNKKFIVPKNAPIVVFEDNTVYVKSAGGSAGGSAGG [r17_49_TrMRF]	< -1 kcal/mol
SAGGSAGGSAGIKVDQNPESNMFSVKIRNDGKEKTIEIDMPPGEPPDIDDLAKKLGIEVVSAGGSAGGSAGG [r11_1053_TrROS]	< -1 kcal/mol
SAGGSAGGSAGKKKPPPKVTLVIRVKMSPEEVKKLAELFPDAKVTVTYDEETGLLTVTFDSAGGSAGGSAGG [r17_254_TrROS_Hall]	> 6 kcal/mol
SAGGSAGGSAGKNVPFRWRIRDPKNGNEKTIDVPMDSPEDMNRAADELQKKFPGYKVEPYSAGGSAGGSAGG [r11_233_TrROS]	< -1 kcal/mol
SAGGSAGGSAGKYISVDELRKNGDPDEAERVVKKIMEKFPGPKIKPIEWDKDGNHMFKIKSAGGSAGGSAGG [r11_365_TrROS]	< -1 kcal/mol
SAGGSAGGSAGMKIFKSKEEAKKAAGPPVELKVKKVPPGSIGKGDPNDTAYLVELKPKEKSAGGSAGGSAGG [r11_168_TrMRF]	< -1 kcal/mol
SAGGSAGGSAGMKKLVKITARVPDEKGNPILVEYEEEVDLKPSDSLPVPEGVLEEIEILESAGGSAGGSAGG [r11_664_JUSTAS]	< -1 kcal/mol
SAGGSAGGSAGMMTLKTGSVTIVRPVPAEEAPAPPEVPGAEELTRTEVVKTEVELLPAELLSAGGSAGGSAG [r3_488_JUSTAS]	< -1 kcal/mol
SAGGSAGGSAGMTPLYFRVERVDPASGGSLEEVVEIDPAEREAVVEELRAVPGLVRVELVSAGGSAGGSAGG [r17_438_JUSTAS]	< -1 kcal/mol
SAGGSAGGSAGPLVLVKELKSSRPVFDKNGKLIGTKTEVLVEAELLAPPANPDDPRYKETSAGGSAGGSAGG [r11_131_TrMRF]	< -1 kcal/mol
SAGGSAGGSAGPPGEPKPKPERKTVHINIPYPPGHPEMREKARELANELQDEGAKVEIYWSAGGSAGGSAGG [r11_519_TrROS]	< -1 kcal/mol
SAGGSAGGSAGPTTSSRTVKPGEVEEVKEAIEAQGVSVTVTLDPSTGTYTVGVTNPGVLGSAGGSAGGSAGG [r11_1043_JUSTAS]	< -1 kcal/mol
SAGGSAGGSAGSEKLEKIKEELKKKGYNDVEVKPAGPDPSVVLVKVKENKDIIIKIENEESAGGSAGGSAGG [r11_765_JUSTAS]	< -1 kcal/mol
SAGGSAGGSAGSMTVTVLEVVPGVPEVVLRRGDTEIRVPASRYTLERDADTTTLVVPEAASAGGSAGGSAGG [r17_403_JUSTAS]	< -1 kcal/mol
SAGGSAGGSAGSPAAERIAKYMEKQGGDNIDIEPVGPRPGYVRIKMKNNRPITIPLKEGDSAGGSAGGSAGG [r11_765_TrROS]	< -1 kcal/mol
SAGGSAGGSAGTRTINMPNPHQARELIKEQPPGKPITIHMPNPEWAKELADAPGVPIQMHSAGGSAGGSAGG [r11_1071_TrROS]	< -1 kcal/mol
SAGGSAGGSAIGLKDAVPGIENVAKALGAKAKAELKVLPDGKPYLVAKLYKDGKPLGELKVDSAGGSAGGSA [r18_369_TrMRF]	< -1 kcal/mol
SAGGSAGGSAIKIPPGYWVRGEFPNVTRHIPIDDIDELKKTFPGNPIRDIEVYDPEDGKPISAGGSAGGSAG [r3_134_TrROS]	< -1 kcal/mol
SAGGSAGGSAIVEKIAKEFGFPAKIEVKRERNPGKWVVIPVRVRDPNGGKTWERKIHLPPNQSAGGSAGGSA [r18_313_TrROS]	< -1 kcal/mol
SAGGSAGGSAKHDVKIDDVERMPNPYRFTITFPGNGKPIPIPFRPNMSIDEMKKEAKELAKSAGGSAGGSAG [r3_142_TrROS]	< -1 kcal/mol

Source: the supplement of paper PMC12764529
